Source: patent US20220227882A1 (TRUSTEES OF TUFTS COLLEGE, published 2022)

Target: T1, V459A (Homo sapiens, UniProt P78325)
T1 construct: expressed on HEK293 cells; also called human ADAM8 point mutant V459A
T1 sequence (ADAM8, looked up): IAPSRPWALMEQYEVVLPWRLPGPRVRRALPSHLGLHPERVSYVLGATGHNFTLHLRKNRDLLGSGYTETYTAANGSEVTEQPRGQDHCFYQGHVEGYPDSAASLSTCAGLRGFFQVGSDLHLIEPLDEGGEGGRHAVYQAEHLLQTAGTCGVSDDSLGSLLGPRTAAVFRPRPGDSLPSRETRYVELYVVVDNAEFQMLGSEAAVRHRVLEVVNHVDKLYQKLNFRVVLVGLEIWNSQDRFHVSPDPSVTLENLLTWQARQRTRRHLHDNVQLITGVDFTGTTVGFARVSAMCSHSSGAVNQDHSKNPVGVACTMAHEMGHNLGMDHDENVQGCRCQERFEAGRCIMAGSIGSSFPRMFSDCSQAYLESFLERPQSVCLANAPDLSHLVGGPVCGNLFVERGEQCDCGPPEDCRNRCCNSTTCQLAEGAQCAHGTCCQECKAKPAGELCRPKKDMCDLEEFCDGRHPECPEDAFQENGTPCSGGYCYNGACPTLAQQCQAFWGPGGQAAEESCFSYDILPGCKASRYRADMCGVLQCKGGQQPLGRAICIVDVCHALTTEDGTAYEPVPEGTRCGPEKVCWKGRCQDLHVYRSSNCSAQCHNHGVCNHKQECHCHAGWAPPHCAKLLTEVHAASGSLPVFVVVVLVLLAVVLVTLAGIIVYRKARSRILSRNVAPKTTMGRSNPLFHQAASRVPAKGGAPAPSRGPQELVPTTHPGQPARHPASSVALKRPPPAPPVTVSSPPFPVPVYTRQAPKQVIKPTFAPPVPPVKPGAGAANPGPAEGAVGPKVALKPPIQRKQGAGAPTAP
Assay: high-throughput flow cytometry, HEK293 cells with mutant ADAM8, high stringency; range in parentheses; dotted box
Description: A variety of experimental parameters were optimized for high-throughput flow cytometry including blocking buffer, and primary and secondary antibody concentrations, to identify the optimal conditions for screening. Through these studies ADP2 and ADP13 were determined to be high affinity binding antibodies.
Thus, for these studies antigen-binding fragments (Fabs) of ADP2 and ADP13, which bind with lower affinity than the full antibody, were generated. In addition, higher binding stringency conditions were tested, such as increased pH, salinity, and temperature, and/or increased washing, to weaken binding sufficiently to allow identification of critical binding residues in flow cytometry. The final experimental flow cytometry conditions were: primary antibody incubation with ADP2 Fab (0.50 μg/ml), ADP13 Fab (5.00 μg/ml) and Control Ab (0.16 μg/ml) for 60 minutes in flow cytometry buffer containing 10% goat serum in PBS (Ca²⁺ and Mg²⁺ free). […] Samples were washed three times after primary antibody incubation and twice after secondary antibody incubation with PBS (Ca²⁺ and Mg′ free). Next, HEK293 cells expressing WT or mutated ADAM8 proteins or EV DNA were incubated with ADP2 or ADP13 Fabs or Control Ab at their optimal concentrations. Fab binding was detected using Alexa Fluor 488-conjugated secondary antibodies and mean cellular fluorescence determined using the Intellicyt iQue flow cytometry platform. […] This counter-screen strategy facilitates the exclusion of mutants that are locally misfolded or that have an expression defect. Binding of each test Fab to each mutant clone in the alanine scanning library was determined, in duplicate, by high-throughput flow cytometry.

- Binding Reactivity (% WT): 27.8 % WT
B1: ADP13 Fab (Fab, V domains shown)
VH: EVQLQQSGPEMVKPGTSVKISCKASGYTFTDYYINWVKQSHGKSLEWIGDISPNIGGATYNPKFKGKAILTVDKSARTAYMELRSLTSEDSAVYCCTRGGSSYPYFYAMDYWGQGTSVTVSS
VL: DIVMSQSPSSLAVSVGEKVTMSCKSSQSLLYSSNQKKYLAWYQQKPGQSPKLLIYWASTRESGVPDRFTGSGSGTDFTLTISSVKAEDLAVYYCQQFYSYPYTFGGGTKLEINR
